The numbers were not newly measured in article PMC10003451, “Phosphorylated Peptide Derived from the Myosin Phosphatase Target Subunit Is a Novel Inhibitor of Protein Phosphatase-1” (International Journal of Molecular Sciences, 2023), which cites them from elsewhere.

Data set [1] addresses T1, PP1c (Homo sapiens, UniProt P62136).
T1 construct: made in house; host or cells: E. coli
Also noted: method as in 2 sources, ref 30 = [30]; PMID 12030846; doi:10.1042/bj20020401; 30. Murányi A. MacDonald J.A. Deng J.T. Wilson D.P. Haystead T.A. Walsh M.P. Erdődi F. Kiss E. Wu Y. Hartshorne D.J. Phosphorylation of the myosin phosphatase target subunit by integrin-linked kinase ||| ref 31 = [31]; PMID 19531490; doi:10.1074/jbc.M109.019729; 31. Khromov A. Choudhury N. Stevenson A.S. Somlyo A.V. Eto M. Phosphorylation-dependent autoinhibition of myosin light chain phosphatase accounts for Ca 2+ sensitization force of smooth muscle contrac.

Data set [2] concerns MP holoenzyme. Also noted: method as in PMID 19531490. Conditions: phosphorylated at Thr696.

T1 sequence (P62136 whole entry): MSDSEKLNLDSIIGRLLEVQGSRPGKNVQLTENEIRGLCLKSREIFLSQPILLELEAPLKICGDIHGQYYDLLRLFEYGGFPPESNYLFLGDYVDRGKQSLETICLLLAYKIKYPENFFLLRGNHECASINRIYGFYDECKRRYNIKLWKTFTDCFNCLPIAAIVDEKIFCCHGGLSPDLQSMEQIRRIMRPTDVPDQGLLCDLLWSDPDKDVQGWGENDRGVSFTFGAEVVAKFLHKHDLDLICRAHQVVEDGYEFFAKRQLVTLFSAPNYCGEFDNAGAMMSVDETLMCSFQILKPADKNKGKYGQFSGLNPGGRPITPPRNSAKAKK

B1: GST-MYPT1^654−880: GST-MYPT1^654−880 fragment phosphorylated at Thr696 (protein, UniProt O14974 654-880, looked up, fragment)
chain: GTVSSTTEVRERRRSYLTPVRDEESESQRKARSRQARQSRRSTQGVTLTDLQEAEKTIGRSRSTRTREQENEEKEKEEKEKQDKEKQEEKKESETSREDEYKQKYSRTYDETYQRYRPVSTSSSTTPSSSLSTMSSSLYASSQLNRPNSLVGITSAYSRGITKENEREGEKREEEKEGEDKSQPKSIRERRRPREKRRSTGVSFWTQDSDENEQEQQSDTEEGSNKK
modifications: GST fusion; phosphorylated Thr696
notes: GST-MYPT1^654−880 fragment phosphorylated at Thr696
For B1, the “effect on PP1c (literature)” value in data set [1] (phosphorylated at Thr696) is reported as “without effect on PP1c”. Also, the “inhibition of MP holoenzyme (literature)” value in data set [2] is reported as “inhibited MP holoenzyme potently in nanomolar concentrations”.

B2: His-tagged MYPT1^514−963: C-terminal fragment of a recombinant His-tagged MYPT1 phosphorylated at Thr654 (protein, UniProt O14974 514-963, looked up, fragment)
chain: KENRDSSSLRTSSSYTRRKWEDDLKKNSSVNEGSTYHKSCSFGRRQDDLISSSVPSTTSTPTVTSAAGLQKSLLSSTSTTTKITTGSSSAGTQSSTSNRLWAEDSTEKEKDSVPTAVTIPVAPTVVNAAASTTTLTTTTAGTVSSTTEVRERRRSYLTPVRDEESESQRKARSRQARQSRRSTQGVTLTDLQEAEKTIGRSRSTRTREQENEEKEKEEKEKQDKEKQEEKKESETSREDEYKQKYSRTYDETYQRYRPVSTSSSTTPSSSLSTMSSSLYASSQLNRPNSLVGITSAYSRGITKENEREGEKREEEKEGEDKSQPKSIRERRRPREKRRSTGVSFWTQDSDENEQEQQSDTEEGSNKKETQTDSISRYETSSTSAGDRYDSLLGRSGSYSYLEERKPYSSRLEKDDSTDFKKLYEQILAENEKLKAQLHDTNMELTDLKLQ
modifications: His tag; phosphorylated Thr654
As to B2, the IC50 in data set [1] (phosphorylated at Thr654 (corresponding to Thr696 in the longer MYPT1 isoform), read-out: IC50, inhibition of PP1c (literature)) was approximately 100 nM.
